Values of other authors, collected in article PMC8531642.

What was measured:
[1] = molecular target: Cytochrome c (UniProt P99999)
[2] = molecular target: LRG1 (Homo sapiens) (UniProt P02750); assay: SPR
Chain of UniProt P02750 (P02750 36-347): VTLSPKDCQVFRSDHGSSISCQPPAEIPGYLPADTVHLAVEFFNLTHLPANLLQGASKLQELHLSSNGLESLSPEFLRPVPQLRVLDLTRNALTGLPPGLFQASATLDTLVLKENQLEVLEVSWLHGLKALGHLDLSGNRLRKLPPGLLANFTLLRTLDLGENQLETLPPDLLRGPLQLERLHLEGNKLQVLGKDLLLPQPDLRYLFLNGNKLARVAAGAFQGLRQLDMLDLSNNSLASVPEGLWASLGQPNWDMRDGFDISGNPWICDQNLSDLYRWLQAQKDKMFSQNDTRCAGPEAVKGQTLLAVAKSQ

Kd [1] [nM]	Kd [2] [nM]	Substance
500	–	Apaf-1 (from UniProt O14727)
–	0.000158	Cytochrome c (from UniProt P99999)
–	2320	TGF-β1 (from UniProt P01137)
